Experimental data published in paper PMC12273567 (The Journal of Biological Chemistry, 2025).

Target: T1, recombinant His-tagged NRF2, full length (UniProt Q16236 1-605)
T1 sequence: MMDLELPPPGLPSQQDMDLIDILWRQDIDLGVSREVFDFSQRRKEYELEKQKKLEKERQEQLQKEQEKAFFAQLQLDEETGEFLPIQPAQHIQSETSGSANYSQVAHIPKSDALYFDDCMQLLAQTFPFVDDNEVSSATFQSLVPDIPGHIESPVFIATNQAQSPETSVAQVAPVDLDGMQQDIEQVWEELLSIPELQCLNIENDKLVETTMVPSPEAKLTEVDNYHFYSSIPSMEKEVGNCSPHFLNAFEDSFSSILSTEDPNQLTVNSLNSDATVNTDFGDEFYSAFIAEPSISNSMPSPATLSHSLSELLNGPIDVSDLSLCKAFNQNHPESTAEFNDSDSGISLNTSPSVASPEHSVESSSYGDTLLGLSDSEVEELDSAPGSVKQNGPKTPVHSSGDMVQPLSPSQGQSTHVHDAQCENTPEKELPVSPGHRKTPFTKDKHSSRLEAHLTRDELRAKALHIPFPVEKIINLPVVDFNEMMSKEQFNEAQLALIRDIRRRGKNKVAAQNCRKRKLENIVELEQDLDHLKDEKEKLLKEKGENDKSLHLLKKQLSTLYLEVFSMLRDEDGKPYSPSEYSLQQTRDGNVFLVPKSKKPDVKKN
Experiment: MST

- Kd: 859 ± 70.1 nM
B1: recombinant αB-crystallin (natural protein)
chain: MDIAIHHPWIRRPFFPFHSPSRLFDQFFGEHLLESDLFPTSTSLSPFYLRPPSFLRAPSWFDTGLSEMRLEKDRFSVNLDVKHFSPEELKVKVLGDVIEVHGKHEERQDEHGFISREFHRKYRIPADVDPLTITSSLSSDGVLTVNGPRKQVSGPERTIPITREEKPAVTAAPKK
